The values that follow come from paper PMC2721907 (Nature structural & molecular biology, 2009).

Test [1] addresses Plk1 PBD (purified recombinant) (human). The experiment in a line: ITC.
The target of the next test is Plk1 (Homo sapiens, UniProt P53350). Description: Peptide pull-down of Plk1 from HeLa lysates with bead-immobilized peptides.
The target in test [2] is Plk2 PBD (purified recombinant). Description: ITC.

Square brackets hold non-standard residues; d marks the D form. Ends that are not written are not given here. F2Pmab = 2-amino-4,4-difluoro-3-methyl-4-phosphobutanoic acid (p-Thr mimetic); pT = C[C@@H](OP(=O)(O)O)[C@H](N)C(=O)O

Plk1, sequence (P53350 367-603 limits assumed): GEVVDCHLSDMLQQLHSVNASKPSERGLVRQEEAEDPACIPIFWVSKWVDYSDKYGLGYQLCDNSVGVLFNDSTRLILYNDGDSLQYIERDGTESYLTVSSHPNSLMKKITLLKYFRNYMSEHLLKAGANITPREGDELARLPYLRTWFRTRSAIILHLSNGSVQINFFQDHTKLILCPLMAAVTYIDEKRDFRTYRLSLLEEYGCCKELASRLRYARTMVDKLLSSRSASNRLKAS
Plk2 PBD (purified recombinant), sequence (Q9NYY3 whole entry): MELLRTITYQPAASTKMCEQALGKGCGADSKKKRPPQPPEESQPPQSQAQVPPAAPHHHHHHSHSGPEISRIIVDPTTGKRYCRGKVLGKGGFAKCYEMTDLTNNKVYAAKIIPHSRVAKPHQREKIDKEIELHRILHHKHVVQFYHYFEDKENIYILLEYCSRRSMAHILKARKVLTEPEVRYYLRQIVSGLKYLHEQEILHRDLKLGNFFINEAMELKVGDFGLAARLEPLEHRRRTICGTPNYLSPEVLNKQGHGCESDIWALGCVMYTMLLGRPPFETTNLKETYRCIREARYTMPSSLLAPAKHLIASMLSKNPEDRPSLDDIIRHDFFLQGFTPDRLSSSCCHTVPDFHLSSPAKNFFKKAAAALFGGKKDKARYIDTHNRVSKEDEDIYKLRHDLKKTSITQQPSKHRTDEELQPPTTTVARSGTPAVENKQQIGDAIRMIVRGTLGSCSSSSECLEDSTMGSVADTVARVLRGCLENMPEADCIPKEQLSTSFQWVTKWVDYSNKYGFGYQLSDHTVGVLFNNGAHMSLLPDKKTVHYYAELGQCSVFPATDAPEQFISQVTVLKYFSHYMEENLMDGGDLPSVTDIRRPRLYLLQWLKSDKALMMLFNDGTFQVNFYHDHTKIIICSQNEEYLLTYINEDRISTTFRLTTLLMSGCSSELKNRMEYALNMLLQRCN

As to “LHSpTA, N-terminally acetylated (peptide)”, the dH in test [1] is -9.9 kcal/mol.
In the case of “PLHS-F2Pmab-A: 6-mer p-T78 mimetic peptide containing 2-amino-4,4-difluoro-3-methyl-4-phosphobutanoic acid (F2Pmab) (PLHS[F2Pmab]A-NH2)”, the “Plk1 binding in peptide pull-down (in words)” value with Plk1 is “precipitated Plk1”.
As to “PLQSpT, N-terminally acetylated (peptide)”, in test [2], the calorimetric initial heat of interaction was -1.1 kcal/mol.
For the molecule Ac-PLHSpT (peptide), in test [1], the Kd amounted to 445 nM.
Take “MQSpTPL, N-terminally acetylated (peptide)”: in test [2], the calorimetric initial heat of interaction was -1.68 kcal/mol. Further, the dH in test [1] is -10 kcal/mol.
For the molecule PLHA-Pmab (PLHAT), the “Plk1 binding in peptide pull-down (in words)” value in the test with Plk1 was “abolished the Plk1 binding”.
As for Ac-PLHS[pT]A [PLHSpTA, N-terminally acetylated], in test [1], the Kd came out at 262 nM and the dH was -11.6 kcal/mol.
The like results for Ac-LHS[pT]AI [LHSpTAI, N-terminally acetylated] were, in that order, 247 nM and -11.3 kcal/mol.
Consider Ac-HS[pT]A [HSpTA, N-terminally acetylated], for which, in test [1], the Kd is 19500 nM and the dH is -3.82 kcal/mol.
Regarding Ac-LHS[pT] [LHSpT, N-terminally acetylated], in test [1], the Kd was determined as 22100 nM and the dH is -6.29 kcal/mol.
